Experimental data taken from article PMC6755732, “Structural, Biochemical, and In Vivo Characterization of MtrR-Mediated Resistance to Innate Antimicrobials by the Human Pathogen Neisseria gonorrhoeae”.

What was measured:
[1] = target: T1, MtrR (Neisseria gonorrhoeae, UniProt P39897 1-210); experiment: fluorescence polarization; 1 mM taurocholate; FP: 20 mM Tris-HCl pH 8.0, 100 mM NaCl, 2.5% glycerol, 1 nM DNA, temperature not stated; EMSA: 20 mM Tris pH 8.0, 200 mM NaCl, 10% glycerol, 1 mM TCEP, 1 ug poly(dI-dC), room temperature, 2% agarose TAE; details: protein: recombinant; tags: His6 removed by thrombin; chain copies: 2
[2] = target: T1, MtrR; experiment: fluorescence polarization; no CAPS; FP: 20 mM Tris-HCl pH 8.0, 100 mM NaCl, 2.5% glycerol, 1 nM DNA, temperature not stated; EMSA: 20 mM Tris pH 8.0, 200 mM NaCl, 10% glycerol, 1 mM TCEP, 1 ug poly(dI-dC), room temperature, 2% agarose TAE; details: protein: recombinant; tags: His6 removed by thrombin; chain copies: 2
[3] = target: T1, MtrR; experiment: fluorescence polarization; 1 mM glycocholate; FP: 20 mM Tris-HCl pH 8.0, 100 mM NaCl, 2.5% glycerol, 1 nM DNA, temperature not stated; EMSA: 20 mM Tris pH 8.0, 200 mM NaCl, 10% glycerol, 1 mM TCEP, 1 ug poly(dI-dC), room temperature, 2% agarose TAE; details: protein: recombinant; tags: His6 removed by thrombin; chain copies: 2
[4] = target: MtrR(R176A) (Neisseria gonorrhoeae, UniProt P39897 1-210, R176A); experiment: fluorescence polarization; no bile salt; nM Kd within 5-fold of WT (137, 184 or 187 nM, assignment unclear); FP: 20 mM Tris-HCl pH 8.0, 100 mM NaCl, 2.5% glycerol, 1 nM DNA, temperature not stated; EMSA: 20 mM Tris pH 8.0, 200 mM NaCl, 10% glycerol, 1 mM TCEP, 1 ug poly(dI-dC), room temperature, 2% agarose TAE; details: protein: recombinant; tags: N-terminal His6 removed by TEV; chain copies: 2
[5] = target: MtrR(R176E) (Neisseria gonorrhoeae, UniProt P39897 1-210, R176E); experiment: as above; details: protein: recombinant; tags: N-terminal His6 removed by TEV; chain copies: 2
[6] = target: MtrR(W136L) (Neisseria gonorrhoeae, UniProt P39897 1-210, W136L); experiment: as above; details: protein: recombinant; tags: N-terminal His6 removed by TEV; chain copies: 2
[7] = target: T1, MtrR; experiment: fluorescence polarization; no bile salt; FP: 20 mM Tris-HCl pH 8.0, 100 mM NaCl, 2.5% glycerol, 1 nM DNA, temperature not stated; EMSA: 20 mM Tris pH 8.0, 200 mM NaCl, 10% glycerol, 1 mM TCEP, 1 ug poly(dI-dC), room temperature, 2% agarose TAE; details: protein: recombinant; tags: His6 removed by thrombin; chain copies: 2

B1: mtrC (mtrCDE) operator 27-mer, fluorescein (dsDNA)
DNA 1: TTTTTATCCGTGCAATCGTGTATGTAT
DNA 2: ATACATACACGATTGCACGGATAAAAA
Kd [1]: 20 ± 6 nM
Kd [2]: ~3.6 nM
Kd [3]: 21 ± 0.8 nM
binding result [4]: binds
binding result [5]: binds
binding result [6]: binds
Kd [7]: 18 ± 3 nM
